Measurements from article PMC11306496.
Each block holds one substance with its values, some of them ahead of it.

Legend:
Test in all cases: co-IP; total rat hippocampal lysates with primary antibody and Protein A/G agarose, 4°C; buffer pH 7.4, 0.05 mol/L HEPES, 0.15 mol/L NaCl, 0.5% NP-40, 1% Triton X-100; non-immune IgG as control; slices untreated or treated with PMA (0.5 umol/L, 10 min) and/or AIP (1 umol/L)
[1] = molecular target: Rab11 family-interacting protein 3 (rat (endogenous in hippocampus))
[2] = molecular target: small GTPase Rab11 (rat (endogenous in hippocampus)) (UniProt P62494)
Chain of small GTPase Rab11 (rat (endogenous in hippocampus)) (P62494 whole entry): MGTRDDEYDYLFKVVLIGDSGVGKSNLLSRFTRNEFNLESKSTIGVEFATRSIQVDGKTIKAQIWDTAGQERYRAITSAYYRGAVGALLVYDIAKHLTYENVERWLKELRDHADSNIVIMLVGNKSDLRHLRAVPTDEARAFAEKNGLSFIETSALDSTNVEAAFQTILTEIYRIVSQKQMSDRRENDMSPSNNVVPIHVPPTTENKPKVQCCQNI

[3] = molecular target: NMDA receptor subunit GluN1 (rat (endogenous in hippocampus)) (UniProt P35439)
[4] = molecular target: myosin Va (rat (endogenous in hippocampus)) (UniProt Q9QYF3)
Chain of myosin Va (rat (endogenous in hippocampus)) (Q9QYF3 whole entry): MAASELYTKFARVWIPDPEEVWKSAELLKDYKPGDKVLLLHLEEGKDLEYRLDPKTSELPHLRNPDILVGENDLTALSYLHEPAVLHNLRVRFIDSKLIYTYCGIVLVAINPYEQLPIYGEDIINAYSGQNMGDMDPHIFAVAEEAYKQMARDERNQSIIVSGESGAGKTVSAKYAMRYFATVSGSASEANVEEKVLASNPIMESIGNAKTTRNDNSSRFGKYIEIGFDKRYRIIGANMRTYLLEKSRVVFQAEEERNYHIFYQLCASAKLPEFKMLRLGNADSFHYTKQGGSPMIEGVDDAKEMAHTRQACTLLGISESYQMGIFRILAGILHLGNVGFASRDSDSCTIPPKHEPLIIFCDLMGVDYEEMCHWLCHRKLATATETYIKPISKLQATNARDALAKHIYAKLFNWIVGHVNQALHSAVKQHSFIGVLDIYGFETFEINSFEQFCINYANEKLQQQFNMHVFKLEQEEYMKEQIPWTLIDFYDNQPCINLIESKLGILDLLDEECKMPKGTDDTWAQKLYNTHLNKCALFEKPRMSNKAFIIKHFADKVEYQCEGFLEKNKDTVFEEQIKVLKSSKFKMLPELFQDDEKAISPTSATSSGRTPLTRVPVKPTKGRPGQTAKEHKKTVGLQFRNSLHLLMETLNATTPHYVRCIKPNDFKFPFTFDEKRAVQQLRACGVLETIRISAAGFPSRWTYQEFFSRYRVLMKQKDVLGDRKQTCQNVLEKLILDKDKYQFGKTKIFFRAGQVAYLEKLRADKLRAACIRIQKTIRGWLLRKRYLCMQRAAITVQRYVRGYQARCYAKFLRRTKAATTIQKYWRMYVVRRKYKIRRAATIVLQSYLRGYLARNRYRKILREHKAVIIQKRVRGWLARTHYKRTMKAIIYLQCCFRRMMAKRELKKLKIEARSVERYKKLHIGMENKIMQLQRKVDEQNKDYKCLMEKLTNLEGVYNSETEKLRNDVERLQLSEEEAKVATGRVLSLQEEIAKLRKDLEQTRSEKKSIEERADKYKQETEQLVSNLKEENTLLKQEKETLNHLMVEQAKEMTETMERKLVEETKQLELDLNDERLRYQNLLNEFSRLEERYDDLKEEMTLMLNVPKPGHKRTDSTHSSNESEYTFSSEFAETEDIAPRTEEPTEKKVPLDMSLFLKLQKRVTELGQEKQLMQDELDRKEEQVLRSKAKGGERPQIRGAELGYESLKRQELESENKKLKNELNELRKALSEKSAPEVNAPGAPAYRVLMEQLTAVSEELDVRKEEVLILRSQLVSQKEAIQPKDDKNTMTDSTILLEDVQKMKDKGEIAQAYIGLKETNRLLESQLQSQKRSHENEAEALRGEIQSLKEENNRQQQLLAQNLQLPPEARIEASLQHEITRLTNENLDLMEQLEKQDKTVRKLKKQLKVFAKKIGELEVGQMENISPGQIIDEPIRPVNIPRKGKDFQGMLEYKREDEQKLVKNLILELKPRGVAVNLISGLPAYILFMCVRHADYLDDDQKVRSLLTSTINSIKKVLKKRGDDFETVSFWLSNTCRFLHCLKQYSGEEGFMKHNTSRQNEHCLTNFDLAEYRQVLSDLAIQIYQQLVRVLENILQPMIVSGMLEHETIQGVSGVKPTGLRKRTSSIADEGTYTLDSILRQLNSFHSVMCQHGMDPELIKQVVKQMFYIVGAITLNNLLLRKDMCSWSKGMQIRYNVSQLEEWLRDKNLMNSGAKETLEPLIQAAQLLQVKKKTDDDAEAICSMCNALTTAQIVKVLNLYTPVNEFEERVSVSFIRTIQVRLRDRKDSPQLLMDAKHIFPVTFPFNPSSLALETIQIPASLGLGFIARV

Chain of small GTPase Rab11 (P62494 whole entry): as the sequence (P62494 whole entry) above
Chain of NMDA receptor subunit GluN2A (Q00959 23-1464): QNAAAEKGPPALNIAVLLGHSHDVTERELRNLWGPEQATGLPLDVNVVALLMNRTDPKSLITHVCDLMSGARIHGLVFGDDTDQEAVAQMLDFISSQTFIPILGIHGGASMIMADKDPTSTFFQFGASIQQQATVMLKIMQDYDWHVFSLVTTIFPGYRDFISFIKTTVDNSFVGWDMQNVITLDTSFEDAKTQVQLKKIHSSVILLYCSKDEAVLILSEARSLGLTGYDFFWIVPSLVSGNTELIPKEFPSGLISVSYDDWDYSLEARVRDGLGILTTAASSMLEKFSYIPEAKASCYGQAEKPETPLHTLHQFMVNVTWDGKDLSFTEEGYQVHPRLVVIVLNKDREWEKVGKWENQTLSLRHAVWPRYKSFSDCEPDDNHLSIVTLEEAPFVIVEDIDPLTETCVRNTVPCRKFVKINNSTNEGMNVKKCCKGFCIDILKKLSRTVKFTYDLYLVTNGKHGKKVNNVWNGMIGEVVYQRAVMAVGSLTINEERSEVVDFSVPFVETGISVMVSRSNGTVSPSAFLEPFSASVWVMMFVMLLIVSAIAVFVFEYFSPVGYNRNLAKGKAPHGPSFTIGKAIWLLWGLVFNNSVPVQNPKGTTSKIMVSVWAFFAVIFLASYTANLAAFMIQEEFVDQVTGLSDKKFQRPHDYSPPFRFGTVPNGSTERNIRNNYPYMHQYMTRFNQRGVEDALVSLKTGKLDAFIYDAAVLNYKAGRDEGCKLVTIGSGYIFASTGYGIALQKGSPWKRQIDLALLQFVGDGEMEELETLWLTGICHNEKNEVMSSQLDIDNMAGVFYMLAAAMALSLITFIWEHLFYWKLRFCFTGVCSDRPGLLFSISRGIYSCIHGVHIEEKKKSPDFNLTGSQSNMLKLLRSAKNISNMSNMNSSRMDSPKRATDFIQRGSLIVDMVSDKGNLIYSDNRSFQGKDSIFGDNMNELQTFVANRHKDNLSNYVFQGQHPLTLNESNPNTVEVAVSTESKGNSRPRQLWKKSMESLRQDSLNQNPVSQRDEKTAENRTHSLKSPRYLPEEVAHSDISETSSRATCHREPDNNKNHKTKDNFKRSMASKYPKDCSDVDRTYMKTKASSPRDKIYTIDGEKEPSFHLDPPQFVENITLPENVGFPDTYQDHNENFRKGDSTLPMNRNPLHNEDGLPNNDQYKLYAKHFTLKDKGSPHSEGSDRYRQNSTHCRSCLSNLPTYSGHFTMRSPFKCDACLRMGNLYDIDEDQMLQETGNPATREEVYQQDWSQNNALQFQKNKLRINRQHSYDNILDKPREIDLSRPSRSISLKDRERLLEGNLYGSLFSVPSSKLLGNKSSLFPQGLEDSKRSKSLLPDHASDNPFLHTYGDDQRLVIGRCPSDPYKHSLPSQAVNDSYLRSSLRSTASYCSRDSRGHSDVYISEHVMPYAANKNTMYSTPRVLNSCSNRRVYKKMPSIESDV

- co-IP signal with PMA, normalised to control (IP with anti-FIP3) (fold of control) [1]: 1.45
- co-IP signal with PMA, normalised to control (IP with anti-Rab11) (fold of control) [2]: 1.39
Substance: NMDA receptor subunit GluN2A (from UniProt Q00959 23-1464)

- co-IP signal with PMA, normalised to control (IP with anti-GluN1) (fold of control) [3]: 1.37
Substance: Rab11 family-interacting protein 3 (natural protein)

- co-IP signal with PMA, normalised to control (IP with anti-FIP3) (fold of control) [1]: 1.38
- co-IP signal with PMA, normalised to control (IP with anti-MyoVa) (fold of control) [4]: 1.31
- co-IP signal with PMA, normalised to control (IP with anti-GluN1) (fold of control) [3]: 1.53
Substance: small GTPase Rab11 (from UniProt P62494 1-216) (natural protein)

Second part, the substance before the results:

Substance: NMDA receptor subunit GluN1 (from UniProt P35439 19-938)
- co-IP signal with PMA, normalised to control (IP with anti-FIP3) (fold of control) [1]: 1.44
- co-IP signal with PMA, normalised to control (IP with anti-Rab11) (fold of control) [2]: 1.5

Substance: myosin Va (from UniProt Q9QYF3 1-1828) (natural protein)
- co-IP signal with PMA, normalised to control (IP with anti-FIP3) (fold of control) [1]: 1.33
- co-IP signal with PMA, normalised to control (IP with anti-Rab11) (fold of control) [2]: 1.33
